Results reported in patent US20210122785A1 (Bicycle, published 2021).
Starred links: 1 amine or outer side, 2 acyl side, 3 side chain; linkers in the order of their positions; H or OH if unused. Positions of bridges follow the written chain, without caps; N, C: chain ends. Non-standard residues stand in square brackets, D forms with d. No end group written: not given here. TBMB = c1c(C[*:1])cc(C[*:3])cc1C[*:2]; Dap(Me) = CNC[C@H](N)C(=O)O

T1: hIL17-A (human, UniProt Q16552 24-155)
T1 construct: also called human IL-17A
T1 sequence (looked up): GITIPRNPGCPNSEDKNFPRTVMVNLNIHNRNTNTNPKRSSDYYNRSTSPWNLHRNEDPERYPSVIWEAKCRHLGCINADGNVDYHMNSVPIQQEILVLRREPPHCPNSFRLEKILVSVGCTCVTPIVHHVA

T2: hIL17-F (human, UniProt Q96PD4 31-163)
T2 construct: also called human IL-17F
T2 sequence (looked up): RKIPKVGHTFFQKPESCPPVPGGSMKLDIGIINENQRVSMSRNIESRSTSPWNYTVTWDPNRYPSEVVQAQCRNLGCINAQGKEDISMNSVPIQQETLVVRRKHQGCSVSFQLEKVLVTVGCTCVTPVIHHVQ

T3: IL-17A (UniProt Q16552 24-155)
T3 construct: also called Interleukin-17
T3 sequence (looked up): T1 sequence (looked up)

B1: BCY00008655 (peptide)
peptide: Ac-ACPQDLELCTFLFGDCA
modifications: linker 2-9-16 via TBMB
notes: Bicyclic peptide on a TBMB scaffold; also called Ac-(28-06)(TBMB)
B2: BCY00008651 (peptide)
peptide: Ac-A[Dap(Me)]PQDLEL[Dap(Me)]TFLFGDCA
modifications: linker 2-9-16 via TBMB
notes: Bicyclic peptide on a TBMB scaffold; first and second cysteines of BCY00008655 replaced by Dap(Me); also called Ac-(28-06)(TBMB) Cys12Dap(Me)
B3: BCY00008653 (peptide)
peptide: Ac-A[Dap(Me)]PQDLELCTFLFGD[Dap(Me)]A
modifications: linker 2-9-16 via TBMB
notes: Bicyclic peptide on a TBMB scaffold; first and third cysteines of BCY00008655 replaced by Dap(Me); also called Ac-(28-06)(TBMB) Cys13Dap(Me)
B4: BCY00008654 (peptide)
peptide: Ac-A[Dap(Me)]PQDLEL[Dap(Me)]TFLFGD[Dap(Me)]A
modifications: linker 2-9-16 via TBMB
notes: Bicyclic peptide on a TBMB scaffold; all three cysteines of BCY00008655 replaced by Dap(Me); also called Ac-(28-06)(TBMB) Cys123Dap(Me)
B5: BCY00008648 (peptide)
peptide: Ac-A[Dap(Me)]PQDLELCTFLFGDCA
modifications: linker 2-9-16 via TBMB
notes: Bicyclic peptide on a TBMB scaffold; first cysteine of BCY00008655 replaced by Dap(Me); also called Ac-(28-06)(TBMB) Cys1Dap(Me)
B6: BCY00008649 (peptide)
peptide: Ac-ACPQDLEL[Dap(Me)]TFLFGDCA
modifications: linker 2-9-16 via TBMB
notes: Bicyclic peptide on a TBMB scaffold; second cysteine of BCY00008655 replaced by Dap(Me); also called Ac-(28-06)(TBMB) Cys2Dap(Me)

target: T1, hIL17-A; experiment: IL-17 binding assay (Kd), as described in GB1720932.1

Binder | Kd [nM]
CPENELYCFLSSQQC (linker 1-8-15 via TBMB) [Reference Example A2, CPENELYCFLSSQQC] | 398

target: T2, hIL17-F; experiment: as above

Binder | Kd [nM]
ACGYDYYCALYDICA (linker 2-8-14 via TBMB) [Reference Example A5, A-…-A] | 198
ACLWKDNCTHWSLCA (linker 2-8-14 via TBMB) [Reference Example A6, A-CLWKDNCTHWSLC-A] | 392

target: T3, IL-17A; experiment: IL-17A binding assay, method analogous to WO 2011/141823; replicate n1

Binder | Ki [nM]
B1 | 78.8
B2 | 298
B3 | 173
B4 | 100
B5 | 127
B6 | 60.8

target: T3, IL-17A; experiment: IL-17A binding assay, method analogous to WO 2011/141823; replicate n2

Binder | Ki [nM]
B1 | 107
B2 | 231
B3 | 85.9
B4 | 89.3
B5 | 105
B6 | 59.6

target: T3, IL-17A; experiment: IL-17A binding assay, method analogous to WO 2011/141823; mean of n1 and n2

Binder | Ki [nM]
B1 | 93
B2 | 264
B3 | 129
B4 | 94.7
B5 | 116
B6 | 60.2
